The supplement of paper PMC10567573

B1: INTS3 (parent)
chain: FHPIKETVVEEPVDITPYLDQLDE

Variants of: B1
Assay: protein stability index of a GFP-peptide fusion (GPS, HEK-293T) (PSI 1-6); higher = more stable
Conditions: c terminus: a fixed tail appended
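Note: lentivirally expressed fusions sorted by FACS into six bins by GFP to DsRed ratio, PSI derived from sequencing read proportions per bin multiplied by bin number.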

Protein stability index of substitutions, site by site:
I4: Q 3.83 | D 4.08 | S 3.87 | F 3.4 | G 4.25 | C 3.31 | N 3.85 | L 3.85 | W 2.87 | R 3.17 | K 3.08 | V 3.82 | E 4.06 | A 2.98 | P 2.96 | Y 2.77 | H 4.1 | T 3.9 | M 4.2
V9: W 2 | H 3.05 | I 3.04 | Y 2.97 | K 3.3 | N 3.81 | G 3.93 | M 3.69 | L 3.19 | P 3.62 | Q 3.77 | R 3.08 | D 3.62 | S 3.25 | E 4.25 | A 3.72 | F 2.65 | T 3.22 | C 2.89
K5: W 2.15 | I 3.14 | E 5.06 | C 3.99 | S 4.99 | T 4.29 | Q 3.35 | D 4.86 | V 4.17 | G 4.4 | A 4.47 | N 4.8 | Y 2.83 | P 4.29 | H 4.67 | L 3.87 | F 3.73 | M 4.24 | R 3.9
T7: F 2.32 | A 3.73 | V 3.12 | P 3.31 | S 3.57 | R 3.04 | L 2.7 | D 3.85 | Q 3.26 | E 4.19 | H 3.35 | M 3.55 | I 3.06 | C 2.66 | K 2.91 | N 3.55 | G 4.18 | Y 2.88 | W 2.89
E10: F 1.54 | D 3.24 | A 2.39 | C 2.19
P3: V 4.19 | W 1.73 | Y 2.75 | F 2.52 | E 5 | H 3.56 | Q 3.78 | R 3.76 | G 4.49 | S 4.03 | K 4.82 | D 4.79 | T 3.43 | N 4.63 | L 3.14 | C 3.23 | I 2.66 | A 3.82 | M 2.9
E6: I 1.57 | Q 2.1 | M 2 | W 1.91 | K 2.34 | P 2.89 | S 2.52 | R 1.98 | T 3.28 | L 1.9 | G 3.04 | Y 1.75 | N 2.67 | A 2.42 | C 1.78 | F 1.53 | H 2.01 | V 1.87 | D 3.77
V8: N 3.59 | M 2.95 | Q 4.21 | T 3.53 | R 3.03 | W 2.54 | E 4.18 | K 3.49 | L 3.56 | H 3.19 | G 3.91 | I 2.88 | A 3.87 | P 3.73 | F 2.73 | S 3.38 | Y 3.06 | C 3.76 | D 3.9
H2: G 5.35 | E 5.26 | K 5.24 | T 4.62 | R 4.81 | Q 4.7 | D 5.42 | S 5.47 | A 4.34 | V 2.16 | N 5.18 | Y 4.63 | M 4.87 | W 4.2 | P 5.03 | C 4.11 | I 3.71 | L 4.87 | F 4.86
F1: V 5.44 | M 5.23 | Y 3.3 | W 4.97 | N 5.47 | L 5.28 | S 5.58 | T 5.54 | R 5.18 | Q 5.65 | P 5.74
